Assay [1] has as its target ubiquitin (untagged) (UniProt P0CG47 1-76). Briefly: ITC.
Assay [2] deals with N-terminally TAMRA-labeled monoubiquitin (UniProt P0CG47 1-76, TAMRA on the N-terminus). The experiment in a line: fluorescence polarisation. In general terms: Fluorescence polarisation rises when a labelled molecule tumbles more slowly, as on binding a larger partner.

Usually Kd stands for the constant that tells how readily two partners part at equilibrium. Read a high Kd as a looser complex.

B1: SAGA DUB module containing Ubp8^C146A (complex)
chain 1: MSICPHIQQVFQNEKSKDGVLKTCNAARYILNHSVPKEKFLNTMKCGTCHEINSGATFMCLQCGFCGCWNHSHFLSHSKQIGHIFGINSNNGLLFCFKCEDYIGNIDLINDAILAKYWDDVCTKTMVPSMERRDGLSGLINMGSTAFMSSILQCLIHNPYFIRHSMSQIHSNNCKVRSPDKCFSCALDKIVHELYGALNTKQASSSSTSTNRQTGFIYLLTCAWKINQNLAGYSQQDAHEFWQFIINQIHQSYVLDLPNAKEVSRANNKQCECIVHTVFEGSLESSIVCPGCQNNSKTTIDPFLDLSLDIKDKKKLYECLDSFHKKEQLKDFNYHCGECNSTQDAIKQLGIHKLPSVLVLQLKRFEHLLNGSNRKLDDFIEFPTYLNMKNYCSTKEKDKHSENGKVPDIIYELIGIVSHKGTVNEGHYIAFCKISGGQWFKFNDSMVSSISQEEVLKEQAYLLFYTIRQVN
chain 2: MTEETITIDSISNGILNNLLTTLIQDIVARETTQQQLLKTRYPDLRSYYFDPNGSLDINGLQKQQESSQYIHCENCGRDVSANRLAAHLQRCLSRGARR
chain 3: MTMDTAQLKSQIQQYLVESGNYELISNELKARLLQEGWVDKVKDLTKSEMNINESTNFTQILSTVEPKALEMVSDSTRETVLKQIREFLEEIVDTQ
chain 4: MRSGDAEIKGIKPKVIEEYSLSQGSGPSNDSWKSLMSSAKDTPLQYDHMNRESLKKYFNPNAQLIEDPLDKPIQYRVCEKCGKPLALTAIVDHLEN
For the molecule B1, the dissociation constant (Kd) in assay [1] was found to be 430 mM.

B2: USP4(8-925) wild-type (enzyme)
chain: RERPDAETQKSELGPLMRTTLQRGAQWYLIDSRWFKQWKKYVGFDSWDMYNVGEHNLFPGPIDNSGLFSDPESQTLKEHLIDELDYVLVPTEAWNKLLNWYGCVEGQQPIVRKVVEHGLFVKHCKVEVYLLELKLCENSDPTNVLSCHFSKADTIATIEKEMRKLFNIPAERETRLWNKYMSNTYEQLSKLDNTVQDAGLYQGQVLVIEPQNEDGTWPRQTLQSKSSTAPSRNFTTSPKSSASPYSSVSASLIANGDSTSTCGMHSSGVSRGGSGFSASYNCQEPPSSHIQPGLCGLGNLGNTCFMNSALQCLSNTAPLTDYFLKDEYEAEINRDNPLGMKGEIAEAYAELIKQMWSGRDAHVAPRMFKTQVGRFAPQFSGYQQQDSQELLAFLLDGLHEDLNRVKKKPYLELKDANGRPDAVVAKEAWENHRLRNDSVIVDTFHGLFKSTLVCPECAKVSVTFDPFCYLTLPLPLKKDRVMEVFLVPADPHCRPTQYRVTVPLMGAVSDLCEALSRLSGIAAENMVVADVYNHRFHKIFQMDEGLNHIMPRDDIFVYEVCSTSVDGSECVTLPVYFRERKSRPSSTSSASALYGQPLLLSVPKHKLTLESLYQAVCDRISRYVKQPLPDEFGSSPLEPGACNGSRNSCEGEDEEEMEHQEEGKEQLSETEGSGEDEPGNDPSETTQKKIKGQPCPKRLFTFSLVNSYGTADINSLAADGKLLKLNSRSTLAMDWDSETRRLYYDEQESEAYEKHVSMLQPQKKKKTTVALRDCIELFTTMETLGEHDPWYCPNCKKHQQATKKFDLWSLPKILVVHLKRFSYNRYWRDKLDTVVEFPIRGLNMSEFVCNLSARPYVYDLIAVSNHYGAMGVGHYTAYAKNKLNGKWYYFDDSNVSLASEDQIVTKAAYVLFYQRRDD
On to B2, for which, in assay [2], the binding result is recorded as “binds”.

B3: USP4(8-925) C311A mutant (enzyme)
chain: RERPDAETQKSELGPLMRTTLQRGAQWYLIDSRWFKQWKKYVGFDSWDMYNVGEHNLFPGPIDNSGLFSDPESQTLKEHLIDELDYVLVPTEAWNKLLNWYGCVEGQQPIVRKVVEHGLFVKHCKVEVYLLELKLCENSDPTNVLSCHFSKADTIATIEKEMRKLFNIPAERETRLWNKYMSNTYEQLSKLDNTVQDAGLYQGQVLVIEPQNEDGTWPRQTLQSKSSTAPSRNFTTSPKSSASPYSSVSASLIANGDSTSTCGMHSSGVSRGGSGFSASYNCQEPPSSHIQPGLCGLGNLGNTAFMNSALQCLSNTAPLTDYFLKDEYEAEINRDNPLGMKGEIAEAYAELIKQMWSGRDAHVAPRMFKTQVGRFAPQFSGYQQQDSQELLAFLLDGLHEDLNRVKKKPYLELKDANGRPDAVVAKEAWENHRLRNDSVIVDTFHGLFKSTLVCPECAKVSVTFDPFCYLTLPLPLKKDRVMEVFLVPADPHCRPTQYRVTVPLMGAVSDLCEALSRLSGIAAENMVVADVYNHRFHKIFQMDEGLNHIMPRDDIFVYEVCSTSVDGSECVTLPVYFRERKSRPSSTSSASALYGQPLLLSVPKHKLTLESLYQAVCDRISRYVKQPLPDEFGSSPLEPGACNGSRNSCEGEDEEEMEHQEEGKEQLSETEGSGEDEPGNDPSETTQKKIKGQPCPKRLFTFSLVNSYGTADINSLAADGKLLKLNSRSTLAMDWDSETRRLYYDEQESEAYEKHVSMLQPQKKKKTTVALRDCIELFTTMETLGEHDPWYCPNCKKHQQATKKFDLWSLPKILVVHLKRFSYNRYWRDKLDTVVEFPIRGLNMSEFVCNLSARPYVYDLIAVSNHYGAMGVGHYTAYAKNKLNGKWYYFDDSNVSLASEDQIVTKAAYVLFYQRRDD
Turning to B3, the equilibrium dissociation constant (Kd) in assay [2] turned out to be 0.6 ± 0.17 nM.

The record behind these values is doi:10.1101/238154 (bioRxiv, 2017).
